Experiment: yeast display, Sf9 membrane polyspecificity reagent, FACS + sequencing; frameworks hold sequencing errors
Outline: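 A nanobody's polyreactivity label depends on the gate it was sorted from. Yeast display cells were stained with 10% biotinylated, detergent-solubilized Sf9 membrane reagent for 1 hour at 4 °C, enriched on streptavidin microbeads and sorted by FACS. The low and high (top ~1%) gates were set on anti-HA fluorescence for expression and streptavidin fluorescence for reagent binding.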

For “QVQLVESGGGLVQAGGSLRLSCAASGFIFPHNTMGWYRQAPGKERELVAAISSGGSTNYADSVKGRFTISRDNAKNTVYLQMNSLKPEDTAVYYCNKRVRYHSGFGYWGQGTQVTVSS”, the “polyreactivity (PSR sort gate)” value was “low polyreactivity”.
For “QVQLVESGGGLVQAGGSLRLSCAASGFIFPLYAMGWYRQAPGKERELVAAITWRGDTTSYADSVKGRFTISRDNAKNTVYLQKNSLKPEDTAVDYCAAVRYPSGYDYWGQGTQVTVSS”, the “polyreactivity (PSR sort gate)” value was “high polyreactivity”.
For “QVQLVESGGGLVQAGGSLRLSCAASGFIFPLYAMGWYRQAPGKERELVAAITWRGDTTSYADSVKGRFTISRDNAKNTVYLQMNSLKPEDTAVYYCAAVRYPSGYDYWGQGTQVTVSS”, the “polyreactivity (PSR sort gate)” value was “high polyreactivity”.
For “QVQLVESGGGLVQAGGSLRLSCAASGFIFPPYAMGWYRQAPGKERELVAAIRISGGSTYYADSVKGRFTISRDNAKNTVYLQMNSLKPEDTAVYYCAARYVSSTPAYAYYYWGQGTQVTVSS”, the “polyreactivity (PSR sort gate)” value was “high polyreactivity”.
With “QVQLVESGGGLVQAGGSLRLSCAASGFIFPWYAMGWYRQAPGKERELVAAISESGGGTYYADSVKGRFTISRDYAKNTVYLQMNSLKPEDTAVYYCNKAPRYPYGGYDYWGQGTQVTVSS” the “polyreactivity (PSR sort gate)” value was “low polyreactivity”.
For “QVQLVESGGGLVQAGGSLRLSCAASGFIFPWYAMGWYRQAPGKERELVAIISWDTGSTYYADSVKGRFTISRDNAKNTVYLQMNSLKPEDTAVYYCAAQQPYAGLYYWGQGTQVTVSS”, the “polyreactivity (PSR sort gate)” value was “low polyreactivity”.
For “QVQLVESGGGLVQAGGSLRLSCAASGFIFPYDAMGWYSQAPGNERELVAAITSSGGRTYYADSVQGRFTISRDNAKNTVYFQMNSLKPEDTAVYYCAARGAPPAYGYWGQGTQVTVSS”, the “polyreactivity (PSR sort gate)” value was “high polyreactivity”.
With “QVQLVESGGGLVQAGGSLRLSCAASGFIFPYNEMGWYRPAPGKERELGAAITSGSNTYYADSVKGRFTISRDNAKNTVYLQLNSLKPEDTAFYYCAARRRIYRSMGYWGQGSQVTVSS” the “polyreactivity (PSR sort gate)” value was “low polyreactivity”.
For “QVQLVESGGGLVQAGGSLRLSCAASGFIFPYNTMGWYRQAPGTERELVAAIDSGGSTNYADSVKGRFTISRDNAKNTVDLQMNSLKPEDTAVYYCAADDPGSWWVGLLLTGVDDDYWGQGTQVTVSS”, the “polyreactivity (PSR sort gate)” value was “low polyreactivity”.
In the case of “QVQLVESGGGLVQAGGSLRLSCAASGFIFPYYARGWYRQAPGKERELVAGITGADSTYYADSVKGRFTISRDNAKNTVYLQMNSLKPEDTAVYYCARKRYSLSRTYNYGYWGQGTQVTVSS”, the “polyreactivity (PSR sort gate)” value is reported as “high polyreactivity”.
For “QVQLVESGGGLVQAGGSLRLSCAASGFIFQANAMGWYRQAPGKETELDAAIDDGDTTYADSVKGRFTISRDNAKNTVYLQMNSLKPEDTAGYYCATRRNRSYDYWGQGTQVTVSS”, the “polyreactivity (PSR sort gate)” value was “low polyreactivity”.
For “QVQLVESGGGLVQAGGSLRLSCAASGFIFQANPMGWYRPAPGKERELVAAIDDGDSTYADSVKGRFTISRDNAKNTVYLQMNSLKPEDTAVYYCATRRKRSYDYWGHGTQVTVSS”, the “polyreactivity (PSR sort gate)” value was “low polyreactivity”.
For “QVQLVESGGGLVQAGGSLRLSCAASGFIFQDYALGWYRQAPGKERELVAAISRSTGSTYYADSVKGRFTISRDNPKNTVYLQMNSLKPEDTAVYYCAKPRSWGYNWGQGTQVTVSS”, the “polyreactivity (PSR sort gate)” value was “high polyreactivity”.
For “QVQLVESGGGLVQAGGSLRLSCAASGFIFQKYAMGWYRQAPGKERELVAAIRYDGGSTYYADSVKGRFTISRDNAKNTVYLQMNSLKPDDTAVYYCAAYGPRLLIYPPYRYNYWGQGTQVTVSS”, the “polyreactivity (PSR sort gate)” value was “high polyreactivity”.
For “QVQLVESGGGLVQAGGSLRLSCAASGFIFQKYAMGWYRQAPGKERELVAAIRYDGGSTYYADSVKGRFTISRDNAKNTVYLQMNSLKPEDTAVYYCAAYGPRFLIYPPYRYNYWGQGTQVTVSS”, the “polyreactivity (PSR sort gate)” value was “high polyreactivity”.
For “QVQLVESGGGLVQAGGSLRLSCAASGFIFQPNAMGWYRQAPGKERELVAVITWSGGSTYYADSVKGRFTISRDNAKNTVYLQMNSLKPEDTAVYYCAVDGAYDQKPTDLKGYYYWGQGTQVTVSS”, the “polyreactivity (PSR sort gate)” value was “low polyreactivity”.
In the case of “QVQLVESGGGLVQAGGSLRLSCAASGFIFQPYAMGWYRQAPRKERELVAAITSRGGRTYYADSVKGRFTISRDNAKNTVYLQMNSLKPEDTAVYYCNGDIYASEYYYWGQGTQVTVSS”, the “polyreactivity (PSR sort gate)” value is reported as “low polyreactivity”.
In the case of “QVQLVESGGGLVQAGGSLRLSCAASGFIFQRYAMGCYRQAPGKERELVAAISKGGGNTYYADSVKGRFTISRDNAKKTVYLQMNSLKPEDTAVYYCNAVPRPDHDYWGQGTQVTVSS”, the “polyreactivity (PSR sort gate)” value is reported as “high polyreactivity”.
With “QVQLVESGGGLVQAGGSLRLSCAASGFIFQRYAMGWYRQAPGKERELVAAITKSGGSTYYADSVKGRYTISRDNAKNTVYLQMNSLKPEDTAVYYCNAYRYGSYRPHQEDYDYWGQGTQVTVSS” the “polyreactivity (PSR sort gate)” value was “high polyreactivity”.
For “QVQLVESGGGLVQAGGSLRLSCAASGFIFQTNVMGWYRQAPGKERELVAAISSGDSTYYADSVKGRFTISRDNAKNTVYLQMNSLKPEDTAVYYCAADVLGTTTTVGGFNYWGQGTQVTVSS”, the “polyreactivity (PSR sort gate)” value was “low polyreactivity”.
In the case of “QVQLVESGGGLVQAGGSLRLSCAASGFIFQYFAMGWYRQAPGKERELVAGITSGVRPYYADSLKGRFTISRDNAKNTVYLQMNSLKPEDTAVYYCARLDSAAEPRQYDYWGQGTQVTVSS”, the “polyreactivity (PSR sort gate)” value is reported as “high polyreactivity”.
For “QVQLVESGGGLVQAGGSLRLSCAASGFIFQYYAMGWYRQAPGKERELVAAIRISGGSTYYADSVKGRFTSSRDNAKNTVYLQMNSLKPEDTAVYYCAARQIITKFYTSNGVSSYYWGQGTQVTVSS”, the “polyreactivity (PSR sort gate)” value was “high polyreactivity”.
For “QVQLVESGGGLVQAGGSLRLSCAASGFIFRAYTMGWYRQAPGKERELVAGITSGGSTYYADSVKGRFTISRDNAKNTVYLQMNSLKPDDTAVYYCATYYRRWTPIPYEYWGQGTQVTVSS”, the “polyreactivity (PSR sort gate)” value was “high polyreactivity”.
For “QVQLVESGGGLVQAGGSLRLSCAASGFIFRDNAKGWYRQAPGKERELVAAISSGGTTKYADSVKGRFTISRDNAKNTVYLQMNSLKPEDTAVYYCAKGYAARIWRIYSRLYYWGQGTQVTVSS”, the “polyreactivity (PSR sort gate)” value was “high polyreactivity”.
With “QVQLVESGGGLVQAGGSLRLSCAASGFIFRDNAMGWYRQAPGKERELVAAISKSGGRTYYADSVKGRFTISRDNAKNTVYLQMNSLKPEDTAVYYCAKASRYWSLYYWGQGTQVTVSS” the “polyreactivity (PSR sort gate)” value was “high polyreactivity”.
With “QVQLVESGGGLVQAGGSLRLSCAASGFIFRDNAMGWYRQSPGKERELVAAISERGGRTYYADSVKGRFTISRDNAKNTVYLQMNSLKPEDTAVYYCADEDIAKFYYWGQGTQVTVSS” the “polyreactivity (PSR sort gate)” value was “high polyreactivity”.
With “QVQLVESGGGLVQAGGSLRLSCAASGFIFRGNAMGWYRQAPGKERELVAAISRRGGTTYYADSVKGRFTISRDNAKNTVYLQMNSLKPEDTAVYYCAKLVVVPFYYWGQGTQVTVSS” the “polyreactivity (PSR sort gate)” value was “high polyreactivity”.
With “QVQLVESGGGLVQAGGSLRLSCAASGFIFRGNAMGWYRQAPGKERELVAAISWSGGNTYYADSVKGRFTISRDNAKNTVYLQMNSLKPEDTAVYYCAAGATWSRQGSIRYNYWGQGTQVTVSS” the “polyreactivity (PSR sort gate)” value was “high polyreactivity”.
For “QVQLVESGGGLVQAGGSLRLSCAASGFIFRGNAMGWYRQATGKERELVAGIRSLGGTTSYADSVKVRFTISRDNAKNTVYLQMNSLKPDDSGVYYCAAGYGADFDYWGQGTQVTVSS”, the “polyreactivity (PSR sort gate)” value was “low polyreactivity”.
With “QVQLVESGGGLVQAGGSLRLSCAASGFIFRGYAMGWYRQAPGKERELVAAISRRGGSTYYADSVKGRFTISRDNAKNTVYLHMNSLKPEDTAVYYCNAETTPQGNVRDGYWGQGTQVTVSS” the “polyreactivity (PSR sort gate)” value was “high polyreactivity”.
For “QVQLVESGGGLVQAGGSLRLSCAASGFIFRHNAMGWYRQAPGKEREFVAAISISGGSTYYADSVKGRFTISRDNAKNTVDLQMNSLKPEDTAVYYCNARSLGNTYLLYDYWGQGTQVTVSS”, the “polyreactivity (PSR sort gate)” value was “low polyreactivity”.
In the case of “QVQLVESGGGLVQAGGSLRLSCAASGFIFRHNAMVWYRQAPGKERELVAAITKRGGDTYYADSVKGRFTISRDNAKNTVYLQMISLKPEDTAVYYCNVDVRYPKYYYWGQGTQVTVSS”, the “polyreactivity (PSR sort gate)” value is reported as “low polyreactivity”.

From the nanobody polyreactivity screen of Harvey et al. (2022)
